Assay results taken from paper PMC6389942.

Target: HA-Cep57 (centrosomal protein of 57 kDa, full length), Q86XR8-1
Assay: co-IP (FLAG IP, HA-Cep57 western blot band quantification)
Settings: HEK293T cells; three independent experiments; parent: est. 1.0; read off a plot

HA-Cep57 (centrosomal protein of 57 kDa, full length), Q86XR8-1, sequence (Q86XR8 whole entry): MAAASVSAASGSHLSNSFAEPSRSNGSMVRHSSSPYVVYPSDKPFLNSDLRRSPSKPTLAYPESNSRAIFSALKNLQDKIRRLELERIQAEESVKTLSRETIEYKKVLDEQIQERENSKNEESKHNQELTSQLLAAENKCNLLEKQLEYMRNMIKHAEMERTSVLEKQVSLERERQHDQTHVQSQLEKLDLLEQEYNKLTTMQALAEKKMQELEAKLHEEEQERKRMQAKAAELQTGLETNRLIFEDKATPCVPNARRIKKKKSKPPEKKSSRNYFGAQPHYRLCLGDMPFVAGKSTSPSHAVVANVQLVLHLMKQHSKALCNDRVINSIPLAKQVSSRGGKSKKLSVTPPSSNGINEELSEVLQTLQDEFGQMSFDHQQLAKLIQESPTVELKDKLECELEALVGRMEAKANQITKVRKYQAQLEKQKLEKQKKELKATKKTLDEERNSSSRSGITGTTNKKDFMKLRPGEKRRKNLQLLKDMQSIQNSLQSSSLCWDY

FLAG-PCNT 2536–3336 WT K3154del
response: 0.11
